Results published in patent publication US20070098706A1 (University of Texas, published 2007).

T1: GST-NOXA1(SH3+) (human, UniProt Q86UR1 1-476)
T1 construct: the vector-encoded linker is not described; Immobilised on GSH-Sepharose; not shown: glutathione-S-transferase (GST) encoded by vector pGEX-3X
T1 sequence: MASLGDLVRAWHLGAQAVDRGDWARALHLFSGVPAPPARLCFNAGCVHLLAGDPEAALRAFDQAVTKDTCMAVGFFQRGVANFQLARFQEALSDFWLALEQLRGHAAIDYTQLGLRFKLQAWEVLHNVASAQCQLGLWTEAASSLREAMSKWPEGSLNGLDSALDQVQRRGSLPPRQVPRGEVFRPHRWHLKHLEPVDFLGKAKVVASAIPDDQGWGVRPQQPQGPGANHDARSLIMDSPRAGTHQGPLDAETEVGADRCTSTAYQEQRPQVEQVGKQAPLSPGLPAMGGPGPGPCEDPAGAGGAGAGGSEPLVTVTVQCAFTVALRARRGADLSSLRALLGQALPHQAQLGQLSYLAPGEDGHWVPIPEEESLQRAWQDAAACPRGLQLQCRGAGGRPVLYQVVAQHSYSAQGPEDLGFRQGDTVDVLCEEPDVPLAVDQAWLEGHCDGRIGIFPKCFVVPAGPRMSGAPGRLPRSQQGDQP

B1: MBP-NOXO1(288-370) (other, human, UniProt Q8NFA2 294-376, looked up, not shown: large carriers)
chain: EGLGALLSGTGFRGGDDPAGEARGFPEPSQATAPPPTVPTRPSPGAIQSRCCTVTRRALERRPRRQGRPRGCVDSVPHPTTEQ
modifications: labeled in vitro with [35S]-methionine/[35S]-cysteine
notes: range 294-376; Cloned at the SacI/XhoI sites of pET23bMBPH6 in frame with MBP; linker and any vector tag are not described; Made by in vitro coupled transcription/translation; also called NBP-NOXO1(288-370)
B2: GST-(SH3)+ (other)
chain: RGLQLQCRGAGGRPVLYQVVAQHSYSAQGPEDLGFRQGDTVDVLCEEPDVPLAVDQAWLEGHCDGRIGIFPKCFVVPAGPRMSGAPGRLPRSQQGDQP
notes: Cloned at the EcoRI site of pGEX-3X in frame with GST; the linker is not described; also called fusion protein of GST and the C-terminal NOXA1(SH3+) polypeptide; not shown: glutathione-S-transferase (GST) encoded by vector pGEX-3X
B3: human p47^phox (other, UniProt P14598 1-390, looked up)
chain: MGDTFIRHIALLGFEKRFVPSQHYVYMFLVKWQDLSEKVVYRRFTEIYEFHKTLKEMFPIEAGAINPENRIIPHLPAPKWFDGQRAAENRQGTLTEYCSTLMSLPTKISRCPHLLDFFKVRPDDLKLPTDNQTKKPETYLMPKDGKSTATDITGPIILQTYRAIANYEKTSGSEMALSTGDVVEVVEKSESGWWFCQMKAKRGWIPASFLEPLDSPDETEDPEPNYAGEPYVAIKAYTAVEGDEVSLLEGEAVEVIHKLLDGWWVIRKDDVTGYFPSMYLQKSGQDVSQAQRQIKRGAPPRRSSIRNAHSIHQRSRKRLSQDAYRRNSVRFLQQRRRQARPGPQSPGSPLEEERQTQRSKPQPAVPPRPSADLILNRCSESTKRKLASAV
modifications: labeled in vitro with [35S]-methionine/[35S]-cysteine
notes: no residue limits are printed

Experiments:
GST-(SH3)+ = target: B2; assay: GST pull-down of 35S-labelled MBP-NOXO1(288-370) with isolated SH3-containing polypeptides
Protocol: (§1) Binding interactions are carried out between GST, GST-NOXA1, GST-NOXA1_{SH3+)}, GST-(SH3wt) and GST-(SH3+) fusion proteins immobilized on GSH-Sepharose, and the in vitro synthesized [³⁵S]-labeled target proteins. Volumes of fusion protein bacterial lysates, previously determined to give equal loading of the GSH-Sepharose, are mixed for 5 min at room temperature with 250 μl of a 50% suspension of washed GSH-Sepharose in PBS (137 mM NaCl, 2.68 mM KCl, […] Na2HPO4, pH 7.3). The suspension is washed twice and resuspended to 500 μl in PBS with 10 mM DTT. Human NOX1, NOX2, p47^phox and MBP-NOXO1₍₂₈₈₋₃₇₀₎ are synthesized and labeled in vitro with [³⁵S]-methlionine/[³⁵S]-cysteine (Redivue Pro-mix L-[³⁵S] labeling mix, Amersham Biosciences, Inc. # AGQ0080) using the TNT® Coupled Reticulocyte Lysate System (Promega) and T7 RNA polymerase. A 24 μl aliquot of the labeling reaction is mixed with 476 μl of the resuspended immobilized GST fusion protein for 15 min at room temperature. The gel pellet is washed 4X with 500 μl of PBS/10 mM DTT/0.05% Triton X-100. […] The entire volume of the denatured samples is separated on 9% SDS-PAGE and analyzed by fluorography. A sample of the original binding gel is analyzed by denaturing SDS-PAGE and Coomassie staining to confirnm the loading of the GST proteins. […]

GST-NOXA1(SH3+) [1] = target: T1, GST-NOXA1(SH3+); assay: GST pull-down of 35S-labelled MBP-NOXO1(288-370), SDS-PAGE and fluorography
Protocol: as §1

human p47^phox = target: B3; assay: GST pull-down of 35S-labelled p47phox with isolated SH3-containing polypeptides
Protocol: as §1

GST-NOXA1(SH3+) [2] = target: T1, GST-NOXA1(SH3+); assay: GST pull-down of 35S-labelled p47phox, SDS-PAGE and fluorography
Protocol: as §1

Question: Which results are given for B1?
Answer: binding result (GST-(SH3)+): no binding; binding result (GST-NOXA1(SH3+) [1]): no binding

Question: Does B2 bind (human p47^phox)?
Answer: no binding

Question: Does B3 bind (GST-NOXA1(SH3+) [2])?
Answer: no binding
